Data as given in PMC10391610, “Survivin prevents the polycomb repressor complex 2 from methylating histone 3 lysine 27” (iScience, 2023).

B1: EZH2_(172-211) peptide (peptide)
peptide: VELVNALGQYNDDDDDDDGDDPEEREEKQKDLEDHRDDKE
notes: source: synthetic peptide, bought: Biomatik (purified to 95%)
B2: EED_(128-152) peptide (peptide)
peptide: SQGEIRLLQSYVDADADENFYTCAW
notes: embryonic ectoderm development (EED), residues 128-152; source: synthetic peptide, bought: Biomatik (purified to 95%)
B3: SUZ12_(573-597) peptide (peptide)
peptide: PLRPQEMEVDSEDEKDPEWLREKTI
notes: suppressor of zeste 12 (SUZ12), residues 573-597; source: synthetic peptide, bought: Biomatik (purified to 95%)
B4: JARID2_(170-194) peptide (peptide)
peptide: PNSMVYFGSSQDEEEVEEEDDETED
notes: as for B1

Target: T1, survivin (His-tagged, from pHIS8) (human, UniProt O15392 1-142)
T1 construct: survivin, human, residues 1-142 (142 amino acids), called the full-length construct; plasmid pHis8-survivin obtained from the Verdecia lab (doi 10.1038/76838); The tag is detected by the anti-His antibody on the microarray; For NMR the protein was uniformly 15N labelled (M9 medium); For MST one copy was labelled with the GREEN-MALEIMIDE (cysteine reactive) dye; also called survivin_(1-142); …
T1 sequence (O15392 whole entry, the tested form may be a part): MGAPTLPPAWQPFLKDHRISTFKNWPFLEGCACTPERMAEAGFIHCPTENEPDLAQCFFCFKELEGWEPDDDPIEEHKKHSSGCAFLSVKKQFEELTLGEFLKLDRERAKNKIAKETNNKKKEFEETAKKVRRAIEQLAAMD
Experiment: NMR titration; peptides titrated into [U-15N]-survivin (0.3 mM); 2D [15N,1H]-SOFAST-HMQC; NMR buffer (50 mM Tris, 150 mM NaCl, 1 mM DTT, pH 7.5), 298 K; global signal attenuation fitted with a logistic function (critical peptide concentration, cpc)
Conditions: both partners purified

Binder	NMR cpc (critical peptide concentration) [µM]
B1	0.0021
B2	0.0076
B3	0.0066
B4	0.0085
